# From publication PMC3405102, “Solution Structure of the LIM-Homeodomain Transcription Factor Complex Lhx3/Ldb1 and the Effects of a Pituitary Mutation on Key Lhx3 Interactions” (PLoS ONE, 2012)
# T1: Lhx3 LIM1+2 as it stands in the tethered complex Ldb1-Lhx3 (mouse, UniProt P50481-1 28-153)
# T1 construct: Lhx3 (LIM homeobox protein 3), mouse, both LIM domains, residues 28-153; source: part of the tethered Ldb1-Lhx3 chain
# T1 sequence (looked up): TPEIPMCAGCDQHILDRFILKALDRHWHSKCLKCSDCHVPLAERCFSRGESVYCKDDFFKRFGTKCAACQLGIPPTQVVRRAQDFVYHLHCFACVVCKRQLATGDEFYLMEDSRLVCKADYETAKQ
# B1: Ldb1LID as it stands in the tethered complex Ldb1-Lhx3 (domain or fragment, mouse, UniProt P70662-3 300-339, looked up)
# chain: DVMVVGEPTLMGGEFGDEDERLITRLENTQFDAANGIDDE
# notes: numbers count on: isoform P70662-3; source: part of the tethered Ldb1-Lhx3 chain
# Biological target: T1, Lhx3 LIM1+2 as it stands in the …
# Assay: SAXS; Ldb1-Lhx3 tethered complex at 4.5 mg mL^-1 in 20 mM Na2HPO4, 40 mM NaCl, 1 mM DTT, pH 6.8, 283 K; mass from I(0), Guinier analysis, DAMMIF and BUNCH modelling
# Settings: both partners purified
binder,measurement,value
B1,binding result,binds
